Biological target: the molecule itself
Assay: crystal structure

B1: Shb17 (H13A), catalytically inactive mutant of sedoheptulose-1,7-bisphosphatase (enzyme, S. cerevisiae)
chain: MPSLTPRCIIVRAGQTEWSKSGQYTGLTDLPLTPYGEGQMLRTGESVFRNNQFLNPDNITYIFTSPRLRARQTVDLVLKPLSDEQRAKIRVVVDDDLREWEYGDYEGMLTREIIELRKSRGLDKERPWNIWRDGCENGETTQQIGLRLSRAIARIQNLHRKHQSEGRASDIMVFAHGHALRYFAAIWFGLGVQKKCETIEEIQNVKSYDDDTVPYVKLESYRHLVDNPCFLLDAGGIGVLSYAHHNIDEPALELAGPFVSPPEEESQHGDV
How did the “stoichiometry N” value turn out when B1 was run?
Its value is 2.
